The values below come from paper PMC4114980.

The target in the test is purified bovine brain tubulin (bovine) (UniProt Q6B856). In words: co-sedimentation; constant Chro-CTD (10 µg) with 0.125–2.5 µM taxol-stabilized microtubules from bovine brain tubulin; bound fraction in pellets by densitometry of immunoblots; Kd from a Lineweaver-Burk plot; three independent experiments. A general note: In western blotting, separated proteins are transferred to a membrane and probed.

B1: Chro-CTD (329–926), COOH-terminal domain of Chromator, GST-fusion protein (domain or fragment)
chain: AMDAFKQWVNETVAGDGSSSPSSANEDESSTEQEWPPSSGAIKRKLNNTDSSLEGSGLNDSMDLEDLEEDLPSHTVKRLKNGGSSVQLNKPRIQSTEKQQTKINGNSTVVSPLTEQKMGEIIYTEDSTSSGMFRKPEMPNTINLKKEKPECPVRYLSRSEVGSSTRGVFRVENSEAPAPVSPAPVPQKVIAAPPAAGIAKRLPMARPAHSGANSPITVGQRQHALRTPGHGPVTAALHRRPGVGGASHVRQNLQQAPGRAHPGGRVLARAGVGTPQHRQQVQTPQGAKAVTPEQKILQLSKSGDLKVTRKVVTREELLAQRSAQARQRQALSQQQSSQQQKATPARQRIVSKSTIQPTPLQMELEEEIHQHQAQLCPITGKLIGQEETQLQMEQEQQQEQQREQLEAAAQALLGSDQQVLTNEDGSALLVRGEDGTVYQVAGKNAEGQTILVTQGPDGEQQFAYVAAAEGEDQDVLSLDHAVAEAVQAGEQVESHGVGAATADGEQILVSMTEEELAQHQVLQQAEASAAGTGTPPTAQIHITTSDSDGTESQIPAEVVQADLPSPGGTRRVVLLLQDGTFMMTEMHEDQFKTLNIPT
On to B1, for which the Kd amounted to 230 nM.

As a reminder, the Kd is a measure of binding affinity in units of concentration. Read a high Kd as lower affinity.
